Several values for one entry are separate records, joined by “and”; a condition that tells them apart may be missing. Equal entries are not always repeated. Blank lines part the entries; values can stand above or below the molecule they belong to.
Tests used:
[1] = target: polypeptide including human fibronectin domains 7, ED-B, 8, and 9 (human) (UniProt P02751); assay: SPR
[2] = target: polypeptide including human fibronectin domains 7, ED-B, 8, and 9 (human) (UniProt P02751); assay: SPR, experiment 2
[3] = target: recombinant oncofoetal fibronectin FN7B89 (Fn MRGS-7B89-HHHHHH) (human); assay: SPR kinetics, FN7B89 on chip, bivalent fit
[4] = target: polypeptide including human fibronectin domains 7, ED-B, 8, and 9 (human) (UniProt P02751); assay: SPR, experiment 2; exp. 2
[5] = target: polypeptide including human fibronectin domains 7, ED-B, 8, and 9 (human) (UniProt P02751); assay: SPR, against huBC1
[6] = target: polypeptide including human fibronectin domains 7, ED-B, 8, and 9 (human) (UniProt P02751); assay: SPR, experiment 1; exp. 1
[7] = target: polypeptide including human fibronectin domains 7, ED-B, 8, and 9 (human) (UniProt P02751); assay: SPR, experiment 1
[8] = target: T1, polypeptide including human fibronectin domains 7, ED-B, 8, and 9 (human, UniProt P02751 1173-1538, limits assumed); assay: SPR, experiment 1; exp. 1
T1 construct: domain: fibronectin domains 7, ED-B, 8, and 9

[9] = target: T1, polypeptide including human fibronectin …; assay: SPR, experiment 2
[10] = target: T1, polypeptide including human fibronectin …; assay: SPR, experiment 1
[11] = target: T1, polypeptide including human fibronectin …; assay: SPR, experiment 2; exp. 2
[12] = target: recombinant oncofoetal fibronectin FN7B89 (Fn MRGS-7B89-HHHHHH) (human); assay: SPR kinetics, against muBC1

T1 sequence (P02751 1173-1538 limits assumed): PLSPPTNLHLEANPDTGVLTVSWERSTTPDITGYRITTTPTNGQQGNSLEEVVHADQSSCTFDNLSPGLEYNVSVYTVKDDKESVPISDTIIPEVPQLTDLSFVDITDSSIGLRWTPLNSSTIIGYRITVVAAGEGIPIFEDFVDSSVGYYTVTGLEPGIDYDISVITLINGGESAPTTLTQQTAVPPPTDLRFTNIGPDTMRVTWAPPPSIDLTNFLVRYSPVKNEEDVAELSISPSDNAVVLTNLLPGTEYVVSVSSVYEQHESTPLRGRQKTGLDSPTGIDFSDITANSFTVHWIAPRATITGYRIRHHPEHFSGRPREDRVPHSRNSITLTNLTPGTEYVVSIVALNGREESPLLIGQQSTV
Chain of polypeptide including human fibronectin domains 7, ED-B, 8, and 9 (human) (P02751 1173-1538 limits assumed): as above

Molecule: muBC1 (murine constant regions) (antibody)
Kd [1]: 686 nM
koff [2]: 0.0011 s⁻¹
kon [2]: 1650 M⁻¹ s⁻¹
Kd [3]: 377 nM
koff [3]: 0.00065 s⁻¹
kon [3]: 1700 M⁻¹ s⁻¹

B1: huBC1-IL12 (BC1-IL12 fusion protein of Example 2) (protein, part only; not given: constant regions and IL-12 subunits, not shown: a dimerising Fc or GST)
heavy, part: EVQLVQSGADVKKPGASVKVSCKASGYTFTNYVMHWVRQAPGQGLEWLGYINPYNDGTQYNERFKGRVTMTGDTSISTAYMELSRLTSDDTAVYYCAREVYGNYIWGNWGQGTLVSVSS
light: EIVLTQSPGTLSLSPGERATLSCSASSSISSNYLHWYQQKPGQAPRLLIYRTSNLASGIPDRFSGSGSGTDFTLTISRLEPEDFAVYYCQQGSSIPFTFGQGTKLEIKRTVAAPSVFIFPPSDEQLKSGTASVVCLLNNFYPREAKVQWKVDNALQSGNSQESVTEQDSKDSTYSLSSTLTLSKADYEKHKVYACEVTHQGLSSPVTKSFNRGEC
Kd [4]: 8.3 nM
koff [2]: 0.0016 s⁻¹
kon [2]: 19000 M⁻¹ s⁻¹
fold tighter binding than the huBC1 antibody alone [5]: > 10 fold and 16 fold
Kd [6]: 7.6 nM
koff [7]: 0.0013 s⁻¹
kon [7]: 17000 M⁻¹ s⁻¹

B2: huBC1 (humanised BC1 antibody, human constant regions) (antibody, V domains shown)
VH: B1 heavy, part
VL: EIVLTQSPGTLSLSPGERATLSCSASSSISSNYLHWYQQKPGQAPRLLIYRTSNLASGIPDRFSGSGSGTDFTLTISRLEPEDFAVYYCQQGSSIPFTFGQGTKLEIK
notes: Only variable domains are tied to the unfused antibody; also called huBC1 antibody; HuBC1 Ab
Kd [8]: 125 nM
Kd [3]: 54 nM
koff [3]: 0.00312 s⁻¹
kon [3]: 57600 M⁻¹ s⁻¹
koff [9]: 0.01 s⁻¹
kon [9]: 73000 M⁻¹ s⁻¹
koff [10]: 0.0078 s⁻¹
kon [10]: 62000 M⁻¹ s⁻¹
Kd [11]: 138 nM
fold faster off-rate than muBC1 [12]: 5 fold
fold faster on-rate than muBC1 [12]: 34 fold

Next, values leading:

Kd [3]: 17.3 nM
koff [3]: 0.00087 s⁻¹
kon [3]: 50900 M⁻¹ s⁻¹
Molecule: huBC1-huIL12 (humanised BC1 antibody-human IL12 fusion protein) (from UniProt P29460 23-328)

Kd [3]: 13.9 nM
koff [3]: 0.00109 s⁻¹
kon [3]: 79500 M⁻¹ s⁻¹
Molecule: huBC1-muIL12 (HuBC1-g1-M1-muIL12) (from UniProt P43431 23-215; P43432 23-335)
